Test [1] deals with ZipRevSLT40: yeast GCN4 leucine zipper fused to the amino terminus of RevSLT40, with CFP or YFP at the carboxy terminus (yeast | HIV-1 strain HXB3). Nature of the test: FRET or BRET.
The target of test [2] is HIV-1 Rev wildtype, fused at its carboxy terminus to CFP (donor) or YFP (acceptor) (HIV-1 strain HXB3). Nature of the test: FRET or BRET.

Consider “ZipRevSLT40: yeast GCN4 leucine zipper fused to the amino terminus of RevSLT40, with CFP or YFP at the carboxy terminus”, for which, in test [1], the percent FRET positive cells worked out at 41.9%.
With “HIV-1 Rev wildtype, fused at its carboxy terminus to CFP (donor) or YFP (acceptor) (natural protein)”, in test [2], the percent FRET positive cells came out at 80.3%.

The values above are taken from article PMC3366918.
